Test results from publication PMC4865122, “Structural Analysis and Insights into the Oligomeric State of an Arginine-Dependent Transcriptional Regulator from Bacillus halodurans” (PLoS ONE, 2016).

Experiments:
BhArgR (ArgR, Bh2777) = molecular target: T1, BhArgR (ArgR, Bh2777) (Halalkalibacterium halodurans, UniProt Q9K973); experiment: SEC-MALS (trimer to hexamer shift); EMSA; details: 10 mM L-arginine; SEC-MALS: 20 mM Tris-HCl pH 8.0, 200 mM NaCl, 2 mM MgCl2, 1 mM DTT; EMSA with argG ARG box DNA at 4 C; corepressor; indirect evidence of binding
T1 construct: full length, 149 residues; hexa-histidine tagged in SEC-MALS; trimer (57 kDa) without L-arginine, hexamer (114 kDa) with L-arginine
T1 sequence (Q9K973 1-149): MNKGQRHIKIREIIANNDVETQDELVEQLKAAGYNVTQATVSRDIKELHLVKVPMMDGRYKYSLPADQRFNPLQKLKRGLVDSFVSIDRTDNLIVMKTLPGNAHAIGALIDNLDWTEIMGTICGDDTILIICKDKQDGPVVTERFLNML

[1] = molecular target: T2, BhArgR (Bacillus halodurans) (UniProt Q9K973); experiment: EMSA; details: 50 mM Tris-HCl pH 7.5, 200 mM NaCl, 10 mM MgCl2, 10 mM CaCl2, 10% glycerol; on ice 40 min; 6% native PAGE in TBE pH 8.8 +/- 10 mM L-arginine, 4 C
T2 sequence: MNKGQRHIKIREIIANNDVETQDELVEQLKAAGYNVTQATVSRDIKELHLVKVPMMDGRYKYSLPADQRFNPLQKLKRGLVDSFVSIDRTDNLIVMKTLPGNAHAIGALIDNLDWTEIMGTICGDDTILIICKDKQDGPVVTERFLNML

[2] = molecular target: the molecule itself; experiment: SEC-MALS; Superdex-200 10/300 GL, 20 mM Tris-HCl pH 8.0, 200 mM NaCl, 2 mM MgCl2, 1 mM DTT; 3~6 mg/ml injected; with 10 mM L-arginine

**Q.** How did the “SEC-MALS (trimer to hexamer shift); EMSA” value (BhArgR (ArgR, Bh2777)) turn out when N=C(N)NCCC[C@H](N)C(=O)O [L-arginine] was run?
**A.** The value was “it formed a hexamer in the presence of L-arginine in multi-angle light scattering (MALS) studies”.

**Q.** How did the binding [1] turn out when “CCCAGAATACGCTAAGACAACTTTCTTTTTGCTCATGCTAACAATCCCTCCAAAGTGAATATTCATACTCTTGTTATTATTTTTATACATCCACTTGCATAAAAAAAGGCCTGTATAAA (double strand) [119-bp cognate argG promoter DNA]” was run?
**A.** The binding was “binds”.

B1: Arginine repressor (ArgR, BH2777) from Bacillus halodurans (natural protein, UniProt Q9K973 1-149, looked up)
chain: MNKGQRHIKIREIIANNDVETQDELVEQLKAAGYNVTQATVSRDIKELHLVKVPMMDGRYKYSLPADQRFNPLQKLKRGLVDSFVSIDRTDNLIVMKTLPGNAHAIGALIDNLDWTEIMGTICGDDTILIICKDKQDGPVVTERFLNML
notes: Arginine repressor ArgR (BH2777), Bacillus halodurans, 149 amino acid residues; Met1, Asp2 and Lys3 were in the crystal but disordered, and the model covers residues 4-149; The tag is named for the SEC-MALS sample; Oligomer: trimer without L-arginine, hexamer with 10 mM L-arginine; also called BhArgR; B. halodurans ArgR; source: overexpressed and purified
**Q.** For B1, which “stoichiometry N” value [2] is on record?
**A.** The value was 6.
